Usually Kd stands for a measure of binding affinity in units of concentration. A higher Kd goes with weaker binding.

In article PMC5452030 one finds Kd data, which are given here for one molecule.

Where two headings read alike, the source gives them in different places. A value given as a limit tells only on which side of the number the result lay.

Test in all cases: SPR
In general terms: In SPR one partner is held on a chip, and binding of the other changes the refractive index at the surface.

Assay [1] has as its target human ApoER2 ECD-BAS D68N (LA1 mutant) (human).
The target of assay [2] is human ApoER2 ECD-BAS E107Q (LA2 mutant) (human).
Assay [3] deals with human ApoER2 ECD-BAS H96A/H99A (LA2 mutant) (human).
For assay [4], the target named is human ApoER2 ECD-BAS H96K/H99K (LA2 mutant) (human).
Assay [5] shares this target. The source holds these as a separate data set.

B1: mouse reelin R56 fragment (fifth and sixth reelin repeats), wild type, for SPR (domain or fragment)
chain: DGNNLNNPVLLLDTFDFGPREDNWFFYPGGNIGLYCPYSSKGAPEEDSAMVFVSNEVGEHSITTRDLSVNENTIIQFEINVGCSTDSSSADPVRLEFSRDFGATWHLLLPLCYHSSSLVSSLCSTEHHPSSTYYAGTTQGWRREVVHFGKLHLCGSVRFRWYQGFYPAGSQPVTWAIDNVYIGPQCEEMCYGHGSCINGTKCICDPGYSGPTCKISTKNPDFLKDDFEGQLESDRFLLMSGGKPSRKCGILSSGNNLFFNEDGLRMLVTRDLDLSHARFVQFFMRLGCGKGVPDPRSQPVLLQYSLNGGLSWSLLQEFLFSNSSNVGRYIALEMPLKARSGSTRLRWWQPSENGHFYSPWVIDQILIGGNISGNTVLEDDFSTLDSRKWLLHPGGTKMPVCGSTGDALVFIEKASTRYVVTTDIAVNEDSFLQIDFAASCSVTDSCYAIELEYSVDLGLSWHPLVRDCLPTNVECSRYHLQRILVSDTFNKWTRITLPLPSYTRSQATRFRWHQPAPFDKQQTWAIDNVYIGDGCLDMCSGHGRCVQGSCVCDEQWGGLYCDEPETSLPTQLKDNFNRAPSNQNWLTVSGGKLSTVCGAVASGLALHFSGGCSRLLVTVDLNLTNAEFIQFYFMYGCLITPSNRNQGVLLEYSVNGGITWNLLMEIFYDQYSKPGFVNILLPPDAKEIATRFRWWQPRHDGLDQNDWAIDNVLIS
Regarding B1, the Kd in assay [1] was above 2800 nM; in assay [2] it was 38 nM; in assay [3], 120 nM; in assay [4], 490 nM; in assay [5] it was 45 nM.
